In patent publication US20240239898A1 (published 2024):
Substitutions are numbered along the chain they refer to. Names may count otherwise.

B1: MFc2 (C4n), monomeric IgG4 Fc variant with no YTE mutations (other)
chain: GPSVFLFPPKPKDTLMISRTPEVTCVVVDVSQEDPEVQFNWYVDGVEVHNAKTKPREEQFNSTYRVVSVLTVLHQDWLNGKEYKCKVSNKGLPSSIEKTISKAKGQPREPQVYTFPPSQEEMTKNQVSLRCLVKGFYPSDIAVEWESNGQPENNYKTTKPVLDSDGSFRLESRLTVDKSRWQEGNVFSCSVMHEALHNHYTQKSLSLSL
B2: MFc3, the S354E point mutant of MFc1 (other)
chain: B1 chain with M16Y, S18T, T20E, S118E
B3: MFc4 (T1-S354E), monomeric IgG4 Fc variant (other)
chain: GPSVFLFPPKPKDTLMISRTPEVTCVVVDVSQEDPEVQFNWYVDGVEVHNAKTKPREEQFNSTYRVVSVLTVLHQDWLNGKEYKCKVSNKGLPSSIEKTISKAKGQPREPQVYTFPPEQEEMTKNQVSLRCLVKGFYPSDIAVEWESNGQPENNYKTTKPVLDSDGSFRLESRLTVDKSRWQEGNVFSCSVMHEACSYHLCKSLSLSL
notes: Engineered IgG4 CH2-CH3 with the CH3 monomer set, S354E and the half-life mutation set around residues 432-438 in place of YTE

Key:
[1] = molecular target: recombinant human FcRn (heterodimer of FcRn heavy chain and beta2-microglobulin) (human) (UniProt P55899); test: BLI (Octet), biotinylated human FcRn on streptavidin sensors, pH 6, 1:1 model
Sequence of recombinant human FcRn (heterodimer of FcRn heavy chain and beta2-microglobulin) (human) (P55899 24-297 limits assumed, chain 1 of 2): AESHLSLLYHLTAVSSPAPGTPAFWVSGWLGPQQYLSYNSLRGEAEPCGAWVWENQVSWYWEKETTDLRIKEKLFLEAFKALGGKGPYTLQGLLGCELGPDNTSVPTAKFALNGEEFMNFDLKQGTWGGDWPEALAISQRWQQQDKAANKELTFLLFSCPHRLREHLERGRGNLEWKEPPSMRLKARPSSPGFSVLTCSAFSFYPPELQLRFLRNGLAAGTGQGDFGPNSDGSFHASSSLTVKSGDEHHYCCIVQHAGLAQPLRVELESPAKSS
Sequence of recombinant human FcRn (heterodimer of FcRn heavy chain and beta2-microglobulin) (human) (P61769 21-119 limits assumed, chain 2 of 2, further chain): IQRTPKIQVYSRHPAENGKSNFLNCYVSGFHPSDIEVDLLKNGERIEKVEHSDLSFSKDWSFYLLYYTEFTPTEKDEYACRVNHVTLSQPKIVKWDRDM

[2] = molecular target: T1, recombinant human FcRn (heterodimer of FcRn heavy chain and beta2-microglobulin) (human, UniProt P55899 24-297; P61769 21-119, limits assumed, biotinylated for the Octet assay (site not stated)); test: as above
T1 construct: In-house recombinant heterodimeric FcRn; captured as biotinylated protein on streptavidin sensors for BLI; also called hFcRn; Fc neonatal receptor
T1 sequence (P55899 24-297 limits assumed, chain 1 of 2): as the sequence (P55899 24-297 limits assumed, chain 1 of 2) above
T1 sequence (P61769 21-119 limits assumed, chain 2 of 2): as the sequence (P61769 21-119 limits assumed, chain 2 of 2, further chain) above
Method: (§1) Octet binding analysis. […] Biotinylated FcRn at 1 μg/mL in PBS buffer (pH 7.4) or 100 mM MES buffer (pH 6.0), with 3 mg/mL bovine serum albumin, 0.05% (vol/vol) and Tween 20 (1× Kinetics Buffer; ForteBio), were captured on streptavidin biosensors (ForteBio). The loaded biosensors were washed with assay buffer to remove any unbound protein, followed by association and dissociation measurements with serial dilutions of the different Fc variants or Fc fusion constructs. Octet software (version 7.2) was used to calculate kinetic parameters (kₒₙ and koff) and apparent affinities (KD) from a nonlinear fit based on the 1:1 binding kinetic model of the data, with the equation

[3] = molecular target: T1, recombinant human FcRn (heterodimer of …); test: BLI (Octet) on recombinant FcRn, pH 6 against neutral pH
Method: as §1

Molecule	Kd [1] [nM]	Kd [2] [nM]	fold decrease from pH 6 binding to neutral pH binding [3] [fold]
MFc1 (C4), monomeric IgG4 Fc variant with YTE mutations (from UniProt P01861 111-327)	370		
B1		3560	
B2		330	~50
B3		5	~50
